Laboratory results reported in article PMC12072009, “Catalytic Efficiency Improvement in Cellobiohydrolase I by Cross-Species Domain Exchange Engineering” (International Journal of Molecular Sciences, 2025).
Blank lines part the entries; values can stand above or below the molecule they belong to.

Assays:
Details in all cases: 50 mM citric acid sodium citrate buffer, pH 4.8, 50 °C
[1] = tested on: T1, CT-CBH; assay: fluorescence of released methylumbelliferone (ex […], em […] nm), Michaelis-Menten nonlinear fit; format: biochemical, Thermochaetoides thermophila; Trichoderma reesei
T1 construct: gene cbh1; single-chain fusion: C. thermophilum CBHI (GenBank AM711862.1) with its CBM replaced by that of T. reesei CBHI; secreted from T. reesei Tu-6 delta-ku70

[2] = tested on: T2, TC-CBH; assay: as above; format: biochemical, Trichoderma reesei; Thermochaetoides thermophila
T2 construct: gene cbh1; single-chain fusion: T. reesei CBHI with its CBM replaced by that of C. thermophilum CBHI (GenBank AM711862.1); secreted from T. reesei Tu-6 delta-ku70

[3] = substrate: Cc1cc(=O)oc2cc(O[C@@H]3O[C@H](CO)[C@@H](O[C@@H]4O[C@H](CO)[C@@H](O)[C@H](O)[C@H]4O)[C@H](O)[C@H]3O)ccc12; assay: purified protein; format: biochemical, Trichoderma reesei
[4] = substrate: Cc1cc(=O)oc2cc(O[C@@H]3O[C@H](CO)[C@@H](O[C@@H]4O[C@H](CO)[C@@H](O)[C@H](O)[C@H]4O)[C@H](O)[C@H]3O)ccc12; assay: purified protein; format: biochemical, Thermochaetoides thermophila

Km [1]: 700 µM | Km [2]: 1200 µM
Molecule: Cc1cc(=O)oc2cc(O[C@@H]3O[C@H](CO)[C@@H](O[C@@H]4O[C@H](CO)[C@@H](O)[C@H](O)[C@H]4O)[C@H](O)[C@H]3O)ccc12 [MUC]

B1: T-CBH (Trichoderma reesei CBHI) (Trichoderma reesei QM6a) (protein)
chain: QSACTLQSETHPPLTWQKCSSGGTCTQQTGSVVIDANWRWTHATNSSTNCYDGNTWSSTLCPDNETCAKNCCLDGAAYASTYGVTTSGNSLSIGFVTQSAQKNVGARLYLMASDTTYQEFTLLGNEFSFDVDVSQLPCGLNGALYFVSMDADGGVSKYPTNTAGAKYGTGYCDSQCPRDLKFINGQANVEGWEPSSNNANTGIGGHGSCCSEMDIWEANSISEALTPHPCTTVGQEICEGDGCGGTYSDNRYGGTCDPDGCDWNPYRLGNTSFYGPGSSFTLDTTKKLTVVTQFETSGAINRYYVQNGVTFQQPNAELGSYSGNELNDDYCTAEEAEFGGSSFSDKGGLTQFKKATSGGMVLVMSLWDDYYANMLWLDSTYPTNETSSTPGAVRGSCSTSSGVPAQVESQSPNAKVTFSNIKFGPIGSTGNPSGGNPPGGNPPGTTTTRRPATTTGSSPGPTQSHYGQCGGIGYSGPTVCASGTTCQVLNPYYSQCL
notes: full length: catalytic domain, linker, CBM; secreted from T. reesei Tu-6 delta-ku70 (cDNA1 promoter); no tag stated; concentrated by 30 kDa ultrafiltration
Km [3]: 1300 µM | kcat [3]: 1.29 s⁻¹ | kcat/Km [3]: 1030 M⁻¹ s⁻¹

B2: C-CBH (Chaetomium thermophilum CBHI) (Thermochaetoides thermophila) (protein)
chain: QQACSLTAENHPSLTWKRCTSGGSCSTVNGAVTIDANWRWTHTVSGSTNCYTGNQWDTSLCTDGKSCAQTCCVDGADYSSTYGITTSGDSLNLKFVTKHQYGTNVGSRVYLMENDTKYQMFELLGNEFTFDVDVSNLGCGLNGALYFVSMDADGGMSKYSGNKAGAKYGTGYCDAQCPRDLKFINGEANVGNWTPSTNDANAGFGRYGSCCSEMDVWEANNMATAFTPHPCTTVGQSRCEADTCGGTYSSDRYAGVCDPDGCDFNAYRQGDKTFYGKGMTVDTNKKMTVVTQFHKNSAGVLSEIKRFYVQDGKIIANAESKIPGNPGNSITQEYCDAQKVAFSNTDDFNRKGGMAQMSKALAGPMVLVMSVWDDHYANMLWLDSTYPIDQAGAPGAERGACPTTSGVPAEIEAQVPNSNVIFSNIRFGPIGSTVPGLDGSNPGNPTTTVVPPASTSTSRPTSSTSSPVSTPTGQPGGCTTQKWGQCGGIGYTGCTNCVAGTTCTQLNPWYSQCL
notes: full length: catalytic domain, linker, CBM; secreted from T. reesei Tu-6 delta-ku70 (common signal peptide for all four constructs, cDNA1 promoter); no tag stated; concentrated by 30 kDa ultrafiltration
Km [4]: 1100 µM | kcat [4]: 1.56 s⁻¹ | kcat/Km [4]: 1480 M⁻¹ s⁻¹
